Molecular target: Human CD137 ECD (human)
Assay: SPR, vs parent H183/L072

Chain of Human CD137 ECD (human) (chain, as listed by the source limits assumed): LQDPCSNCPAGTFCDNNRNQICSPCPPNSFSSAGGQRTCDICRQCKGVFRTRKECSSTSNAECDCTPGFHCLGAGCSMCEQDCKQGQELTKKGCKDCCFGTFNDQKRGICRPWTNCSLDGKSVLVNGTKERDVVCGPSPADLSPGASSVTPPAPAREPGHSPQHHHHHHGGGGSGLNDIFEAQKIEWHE

| fold change of affinity [fold] | Binder |
| --- | --- |
| 0 | dBBDu183H H96D / dBBDu072L (antibody, name in Kabat numbering, V domains shown) VH: QVQLVESGGGLVQPGRSLRLSCAASGFTFSNAWMHWVRQAPGKGLEWVAQIKDKGNAYAAYYAPSVKGRFTISRDDSKNSIYLQMNSLKTEDTAVYYCHYVDYASASTVLPAFGVDAWGQGTTVTVSS VL: DIVMTQSPLSLPVTPGEPASISCQASQELVHMNRNTYLHWYQQKPGQAPRLLIYKVSNRFPGVPDRFSGSGSGTDFTLKISRVEAEDVGVYYCAQGTSVPFTFGQGTKLEIK |
| 0 | dBBDu183H S99D / dBBDu072L (antibody, name in Kabat numbering, V domains shown) VH: QVQLVESGGGLVQPGRSLRLSCAASGFTFSNAWMHWVRQAPGKGLEWVAQIKDKGNAYAAYYAPSVKGRFTISRDDSKNSIYLQMNSLKTEDTAVYYCHYVHYADASTVLPAFGVDAWGQGTTVTVSS VL: DIVMTQSPLSLPVTPGEPASISCQASQELVHMNRNTYLHWYQQKPGQAPRLLIYKVSNRFPGVPDRFSGSGSGTDFTLKISRVEAEDVGVYYCAQGTSVPFTFGQGTKLEIK |
| 0 | dBBDu183H L100dD / dBBDu072L (antibody, name in Kabat numbering, V domains shown) VH: QVQLVESGGGLVQPGRSLRLSCAASGFTFSNAWMHWVRQAPGKGLEWVAQIKDKGNAYAAYYAPSVKGRFTISRDDSKNSIYLQMNSLKTEDTAVYYCHYVHYASASTVDPAFGVDAWGQGTTVTVSS VL: DIVMTQSPLSLPVTPGEPASISCQASQELVHMNRNTYLHWYQQKPGQAPRLLIYKVSNRFPGVPDRFSGSGSGTDFTLKISRVEAEDVGVYYCAQGTSVPFTFGQGTKLEIK |
| 0 | dBBDu183H A100fD / dBBDu072L (antibody, name in Kabat numbering, V domains shown) VH: QVQLVESGGGLVQPGRSLRLSCAASGFTFSNAWMHWVRQAPGKGLEWVAQIKDKGNAYAAYYAPSVKGRFTISRDDSKNSIYLQMNSLKTEDTAVYYCHYVHYASASTVLPDFGVDAWGQGTTVTVSS VL: DIVMTQSPLSLPVTPGEPASISCQASQELVHMNRNTYLHWYQQKPGQAPRLLIYKVSNRFPGVPDRFSGSGSGTDFTLKISRVEAEDVGVYYCAQGTSVPFTFGQGTKLEIK |
| 0 | dBBDu183H S99E / dBBDu072L (antibody, name in Kabat numbering, V domains shown) VH: QVQLVESGGGLVQPGRSLRLSCAASGFTFSNAWMHWVRQAPGKGLEWVAQIKDKGNAYAAYYAPSVKGRFTISRDDSKNSIYLQMNSLKTEDTAVYYCHYVHYAEASTVLPAFGVDAWGQGTTVTVSS VL: DIVMTQSPLSLPVTPGEPASISCQASQELVHMNRNTYLHWYQQKPGQAPRLLIYKVSNRFPGVPDRFSGSGSGTDFTLKISRVEAEDVGVYYCAQGTSVPFTFGQGTKLEIK |
| 0 | dBBDu183H S100aE / dBBDu072L (antibody, name in Kabat numbering, V domains shown) VH: QVQLVESGGGLVQPGRSLRLSCAASGFTFSNAWMHWVRQAPGKGLEWVAQIKDKGNAYAAYYAPSVKGRFTISRDDSKNSIYLQMNSLKTEDTAVYYCHYVHYASAETVLPAFGVDAWGQGTTVTVSS VL: DIVMTQSPLSLPVTPGEPASISCQASQELVHMNRNTYLHWYQQKPGQAPRLLIYKVSNRFPGVPDRFSGSGSGTDFTLKISRVEAEDVGVYYCAQGTSVPFTFGQGTKLEIK |
| 0 | dBBDu183H H96E / dBBDu072L (antibody, name in Kabat numbering, V domains shown) VH: QVQLVESGGGLVQPGRSLRLSCAASGFTFSNAWMHWVRQAPGKGLEWVAQIKDKGNAYAAYYAPSVKGRFTISRDDSKNSIYLQMNSLKTEDTAVYYCHYVEYASASTVLPAFGVDAWGQGTTVTVSS VL: DIVMTQSPLSLPVTPGEPASISCQASQELVHMNRNTYLHWYQQKPGQAPRLLIYKVSNRFPGVPDRFSGSGSGTDFTLKISRVEAEDVGVYYCAQGTSVPFTFGQGTKLEIK |
| 0 | dBBDu183H Y97D / dBBDu072L (antibody, name in Kabat numbering, V domains shown) VH: QVQLVESGGGLVQPGRSLRLSCAASGFTFSNAWMHWVRQAPGKGLEWVAQIKDKGNAYAAYYAPSVKGRFTISRDDSKNSIYLQMNSLKTEDTAVYYCHYVHDASASTVLPAFGVDAWGQGTTVTVSS VL: DIVMTQSPLSLPVTPGEPASISCQASQELVHMNRNTYLHWYQQKPGQAPRLLIYKVSNRFPGVPDRFSGSGSGTDFTLKISRVEAEDVGVYYCAQGTSVPFTFGQGTKLEIK |
| 0 | dBBDu183H V100iD / dBBDu072L (antibody, name in Kabat numbering, V domains shown) VH: QVQLVESGGGLVQPGRSLRLSCAASGFTFSNAWMHWVRQAPGKGLEWVAQIKDKGNAYAAYYAPSVKGRFTISRDDSKNSIYLQMNSLKTEDTAVYYCHYVHYASASTVLPAFGDDAWGQGTTVTVSS VL: DIVMTQSPLSLPVTPGEPASISCQASQELVHMNRNTYLHWYQQKPGQAPRLLIYKVSNRFPGVPDRFSGSGSGTDFTLKISRVEAEDVGVYYCAQGTSVPFTFGQGTKLEIK |
| 0 | dBBDu183H S100aD / dBBDu072L (antibody, name in Kabat numbering, V domains shown) VH: QVQLVESGGGLVQPGRSLRLSCAASGFTFSNAWMHWVRQAPGKGLEWVAQIKDKGNAYAAYYAPSVKGRFTISRDDSKNSIYLQMNSLKTEDTAVYYCHYVHYASADTVLPAFGVDAWGQGTTVTVSS VL: DIVMTQSPLSLPVTPGEPASISCQASQELVHMNRNTYLHWYQQKPGQAPRLLIYKVSNRFPGVPDRFSGSGSGTDFTLKISRVEAEDVGVYYCAQGTSVPFTFGQGTKLEIK |
| 0 | dBBDu183H H93E / dBBDu072L (antibody, name in Kabat numbering, V domains shown) VH: QVQLVESGGGLVQPGRSLRLSCAASGFTFSNAWMHWVRQAPGKGLEWVAQIKDKGNAYAAYYAPSVKGRFTISRDDSKNSIYLQMNSLKTEDTAVYYCEYVHYASASTVLPAFGVDAWGQGTTVTVSS VL: DIVMTQSPLSLPVTPGEPASISCQASQELVHMNRNTYLHWYQQKPGQAPRLLIYKVSNRFPGVPDRFSGSGSGTDFTLKISRVEAEDVGVYYCAQGTSVPFTFGQGTKLEIK |
| 0 | dBBDu183H V95E / dBBDu072L (antibody, name in Kabat numbering, V domains shown) VH: QVQLVESGGGLVQPGRSLRLSCAASGFTFSNAWMHWVRQAPGKGLEWVAQIKDKGNAYAAYYAPSVKGRFTISRDDSKNSIYLQMNSLKTEDTAVYYCHYEHYASASTVLPAFGVDAWGQGTTVTVSS VL: DIVMTQSPLSLPVTPGEPASISCQASQELVHMNRNTYLHWYQQKPGQAPRLLIYKVSNRFPGVPDRFSGSGSGTDFTLKISRVEAEDVGVYYCAQGTSVPFTFGQGTKLEIK |
| 0 | dBBDu183H A100D / dBBDu072L (antibody, name in Kabat numbering, V domains shown) VH: QVQLVESGGGLVQPGRSLRLSCAASGFTFSNAWMHWVRQAPGKGLEWVAQIKDKGNAYAAYYAPSVKGRFTISRDDSKNSIYLQMNSLKTEDTAVYYCHYVHYASDSTVLPAFGVDAWGQGTTVTVSS VL: DIVMTQSPLSLPVTPGEPASISCQASQELVHMNRNTYLHWYQQKPGQAPRLLIYKVSNRFPGVPDRFSGSGSGTDFTLKISRVEAEDVGVYYCAQGTSVPFTFGQGTKLEIK |
| 0 | dBBDu183H A102D / dBBDu072L (antibody, name in Kabat numbering, V domains shown) VH: QVQLVESGGGLVQPGRSLRLSCAASGFTFSNAWMHWVRQAPGKGLEWVAQIKDKGNAYAAYYAPSVKGRFTISRDDSKNSIYLQMNSLKTEDTAVYYCHYVHYASASTVLPAFGVDDWGQGTTVTVSS VL: DIVMTQSPLSLPVTPGEPASISCQASQELVHMNRNTYLHWYQQKPGQAPRLLIYKVSNRFPGVPDRFSGSGSGTDFTLKISRVEAEDVGVYYCAQGTSVPFTFGQGTKLEIK |
| 0 | dBBDu183H A98D / dBBDu072L (antibody, name in Kabat numbering, V domains shown) VH: QVQLVESGGGLVQPGRSLRLSCAASGFTFSNAWMHWVRQAPGKGLEWVAQIKDKGNAYAAYYAPSVKGRFTISRDDSKNSIYLQMNSLKTEDTAVYYCHYVHYDSASTVLPAFGVDAWGQGTTVTVSS VL: DIVMTQSPLSLPVTPGEPASISCQASQELVHMNRNTYLHWYQQKPGQAPRLLIYKVSNRFPGVPDRFSGSGSGTDFTLKISRVEAEDVGVYYCAQGTSVPFTFGQGTKLEIK |
| 0 | dBBDu183H G100hD / dBBDu072L (antibody, name in Kabat numbering, V domains shown) VH: QVQLVESGGGLVQPGRSLRLSCAASGFTFSNAWMHWVRQAPGKGLEWVAQIKDKGNAYAAYYAPSVKGRFTISRDDSKNSIYLQMNSLKTEDTAVYYCHYVHYASASTVLPAFDVDAWGQGTTVTVSS VL: DIVMTQSPLSLPVTPGEPASISCQASQELVHMNRNTYLHWYQQKPGQAPRLLIYKVSNRFPGVPDRFSGSGSGTDFTLKISRVEAEDVGVYYCAQGTSVPFTFGQGTKLEIK |
| 0 | dBBDu183H V100cD / dBBDu072L (antibody, name in Kabat numbering, V domains shown) VH: QVQLVESGGGLVQPGRSLRLSCAASGFTFSNAWMHWVRQAPGKGLEWVAQIKDKGNAYAAYYAPSVKGRFTISRDDSKNSIYLQMNSLKTEDTAVYYCHYVHYASASTDLPAFGVDAWGQGTTVTVSS VL: DIVMTQSPLSLPVTPGEPASISCQASQELVHMNRNTYLHWYQQKPGQAPRLLIYKVSNRFPGVPDRFSGSGSGTDFTLKISRVEAEDVGVYYCAQGTSVPFTFGQGTKLEIK |
| 0 | dBBDu183H Y94E / dBBDu072L (antibody, name in Kabat numbering, V domains shown) VH: QVQLVESGGGLVQPGRSLRLSCAASGFTFSNAWMHWVRQAPGKGLEWVAQIKDKGNAYAAYYAPSVKGRFTISRDDSKNSIYLQMNSLKTEDTAVYYCHEVHYASASTVLPAFGVDAWGQGTTVTVSS VL: DIVMTQSPLSLPVTPGEPASISCQASQELVHMNRNTYLHWYQQKPGQAPRLLIYKVSNRFPGVPDRFSGSGSGTDFTLKISRVEAEDVGVYYCAQGTSVPFTFGQGTKLEIK |
| 0 | dBBDu183H Y97E / dBBDu072L (antibody, name in Kabat numbering, V domains shown) VH: QVQLVESGGGLVQPGRSLRLSCAASGFTFSNAWMHWVRQAPGKGLEWVAQIKDKGNAYAAYYAPSVKGRFTISRDDSKNSIYLQMNSLKTEDTAVYYCHYVHEASASTVLPAFGVDAWGQGTTVTVSS VL: DIVMTQSPLSLPVTPGEPASISCQASQELVHMNRNTYLHWYQQKPGQAPRLLIYKVSNRFPGVPDRFSGSGSGTDFTLKISRVEAEDVGVYYCAQGTSVPFTFGQGTKLEIK |
| 0 | dBBDu183H F100gD / dBBDu072L (antibody, name in Kabat numbering, V domains shown) VH: QVQLVESGGGLVQPGRSLRLSCAASGFTFSNAWMHWVRQAPGKGLEWVAQIKDKGNAYAAYYAPSVKGRFTISRDDSKNSIYLQMNSLKTEDTAVYYCHYVHYASASTVLPADGVDAWGQGTTVTVSS VL: DIVMTQSPLSLPVTPGEPASISCQASQELVHMNRNTYLHWYQQKPGQAPRLLIYKVSNRFPGVPDRFSGSGSGTDFTLKISRVEAEDVGVYYCAQGTSVPFTFGQGTKLEIK |
| 0 | dBBDu183H T100bD / dBBDu072L (antibody, name in Kabat numbering, V domains shown) VH: QVQLVESGGGLVQPGRSLRLSCAASGFTFSNAWMHWVRQAPGKGLEWVAQIKDKGNAYAAYYAPSVKGRFTISRDDSKNSIYLQMNSLKTEDTAVYYCHYVHYASASDVLPAFGVDAWGQGTTVTVSS VL: DIVMTQSPLSLPVTPGEPASISCQASQELVHMNRNTYLHWYQQKPGQAPRLLIYKVSNRFPGVPDRFSGSGSGTDFTLKISRVEAEDVGVYYCAQGTSVPFTFGQGTKLEIK |

— patent US20210388087A1
